Experimental data taken from US20050009847A1, “Compounds and methods for increasing neurogenesis” (published 2005).

Molecular target: alpha-subunit of the stimulatory G protein (Gs), mouse (mouse, UniProt P63094)
Assay: cell-based or functional assay

B1: Cholera toxin from Vibrio Cholerae (other)
chain: NDDKLYRADSRPPDEIKQSGGLMPRGQSEYFDRGTQMNINLYDHARGTQTGFVRHDDGYVSTSISLRSAHLVGQTILSGHSTYYIYVIATAPNMFNVNDVLGAYSPHPDEQEVSALGGIPYSQIYGWYRVHFGVLDEQLHRNRGYRDRYYSNLDIAPAADGYGLAGFPPEHRAWREEPWIHHAPPGCGNAPRSSMSNTCDEKTQSLGVKFLDEYQSKVKRQIFSGYQSDIDTHNRIKDEL
- cAMP, fold induction over vehicle, adult mouse neural stem cells: 3.1 fold induction
